Here are results for 4 substances from PMC5407892.

Series [1] concerns the target Entamoeba histolytica DNA ligase I, full-length (Entamoeba histolytica).
Series [2] deals with EhDNAligI deletion mutant lacking its first 39 amino acids including the PIP box (Entamoeba histolytica).
Series [3] addresses Entamoeba histolytica DNA ligase I, full-length (Entamoeba histolytica). The source holds these as a separate data set.
The target in series [4] is EhDNAligI-Phe11Ala:Phe12Ala (Entamoeba histolytica).
The test system of series [5] is EhDNAligI full-length (DNA ligase I) (Entamoeba histolytica). Nature of the series: fluorescence anisotropy. The following applies: 3' dideoxy-C at the nick that halts ligation; Anisotropy: 50 mM Tris/HCl pH 7.5, 25 mM NaCl, 5 mM DTT, 10 mM MgCl2, 250 ug/mL BSA, 1 mM ATP, 30 C; footprinting: 50 mM Tris/HCl pH 7.5, 6.6 mM MgCl2, 5 mM ….
In series [6] the test system is EhDNAligI full-length (DNA ligase I);EhPCNA (Entamoeba histolytica;Entamoeba histolytica). Nature of the series: fluorescence anisotropy. The following applies: 3' dideoxy-C at the nick that halts ligation; Anisotropy: 50 mM Tris/HCl pH 7.5, 25 mM NaCl, 5 mM DTT, 10 mM MgCl2, 250 ug/mL BSA, 1 mM ATP, 30 C; footprinting: 50 mM Tris/HCl pH 7.5, 6.6 mM MgCl2, 5 mM ….
In series [7] the test system is EhDNAligI full-length (DNA ligase I);HsPCNA (Entamoeba histolytica;Homo sapiens). Nature of the series: fluorescence anisotropy. The following applies: with HsPCNA, 10 mM Mg2+, 1 mM ATP, 3' dideoxy-C at the nick that halts ligation, Anisotropy: 50 mM Tris/HCl pH 7.5, 25 mM NaCl, 5 mM DTT, 10 mM MgCl2, 250 ug/mL BSA, 30 C, footprinting: 50 mM Tris/HCl pH 7.5, 6.6 mM MgCl2, 5 mM ….

Series [8] has as its system EhDNAligI ΔDBD;EhPCNA (Entamoeba histolytica;Entamoeba histolytica). The experiment in a line: fluorescence anisotropy. The settings on record: 3' dideoxy-C at the nick that halts ligation; Anisotropy: 50 mM Tris/HCl pH 7.5, 25 mM NaCl, 5 mM DTT, 10 mM MgCl2, 250 ug/mL BSA, 1 mM ATP, 30 C; footprinting: 50 mM Tris/HCl pH 7.5, 6.6 mM MgCl2, 5 mM ….
Series [9] relates to EhDNAligI ΔPIP (Entamoeba histolytica). The experiment in a line: fluorescence anisotropy. The settings on record: 3' dideoxy-C at the nick that halts ligation; Anisotropy: 50 mM Tris/HCl pH 7.5, 25 mM NaCl, 5 mM DTT, 10 mM MgCl2, 250 ug/mL BSA, 1 mM ATP, 30 C; footprinting: 50 mM Tris/HCl pH 7.5, 6.6 mM MgCl2, 5 mM ….
In series [10] the test system is EhDNAligI ΔPIP;EhPCNA (Entamoeba histolytica;Entamoeba histolytica). The experiment in a line: fluorescence anisotropy. The settings on record: 3' dideoxy-C at the nick that halts ligation; Anisotropy: 50 mM Tris/HCl pH 7.5, 25 mM NaCl, 5 mM DTT, 10 mM MgCl2, 250 ug/mL BSA, 1 mM ATP, 30 C; footprinting: 50 mM Tris/HCl pH 7.5, 6.6 mM MgCl2, 5 mM ….

Some results are limits rather than exact numbers.

“Entamoeba histolytica proliferating cell nuclear antigen (natural protein)”: the affinity of the ligase for 3′-FAM-labeled nicked DNA by fluorescence anisotropy, with against without EhPCNA in series [1] came to 11 fold. For the same substance, the catalytic efficiency (k cat/K m) of steady-state ligation, with against without EhPCNA in series [2] and in series [3] was over 18 fold each time. Besides, the stimulation of nick-sealing activity (time course) by wild-type EhPCNA in series [4] worked out at 9.8 fold.
For the substance “3'-FAM nicked dsDNA (anisotropy substrate)”, the Kd in series [5] is 0.0721 µM; in [6], 0.0062 µM; in [7] it was 0.0114 µM; in [8] it was 0.0955 µM; in series [9], 0.0821 µM; in [10], 0.0102 µM.
In [4], EhPCNA-V127A-I129A (natural protein) had a stimulation of nick-sealing activity (time course) by the EhPCNA mutant of under 2.4 fold.
Turning to EhPCNA-Δ254 (natural protein), the stimulation of nick-sealing activity (time course) by the EhPCNA mutant in [4] was under 2.4 fold.
